The values that follow come from patent US20180327499A1 (INSERM INSTITUT NATIONAL DE LA SANT ET DE LA RECHERCHE M …, published 2018).

Assay [1] concerns the target T1, NKG2D on HEK-293T cells co-transfected with NKG2D and DAP10 (UniProt P26718 1-216, limits assumed).
T1 construct: whole, on cells; DAP10 is co-expressed for surface expression; also called NKG2D-DAP10 co-transfected HEK293T cells
T1 sequence (looked up): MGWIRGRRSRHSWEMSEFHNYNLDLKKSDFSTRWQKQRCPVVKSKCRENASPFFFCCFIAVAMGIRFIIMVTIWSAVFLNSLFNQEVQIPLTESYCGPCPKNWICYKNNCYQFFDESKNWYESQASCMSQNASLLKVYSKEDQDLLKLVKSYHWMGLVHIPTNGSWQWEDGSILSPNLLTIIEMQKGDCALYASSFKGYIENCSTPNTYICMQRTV
As to the kind of experiment: flow cytometry on NKG2D/DAP10-transfected HEK-293 cells, one site total binding fit.

For assay [2], the target named is T2, recombinant human NKG2D/Fc chimera (R&D Systems) (human, UniProt P26718 78-216).
T2 construct: Bought reagent; The order Fc then NKG2D follows the printed name 'Fc-NKG2D'; also called Fc-NKG2D; NKGD2-Fc human; Fc part of the bought chimera not given
T2 sequence (looked up): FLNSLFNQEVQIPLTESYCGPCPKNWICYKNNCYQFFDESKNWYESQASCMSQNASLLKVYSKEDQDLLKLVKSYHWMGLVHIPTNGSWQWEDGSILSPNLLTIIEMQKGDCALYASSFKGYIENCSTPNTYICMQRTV
As to the kind of experiment: ELISA on plate coated with Fc-NKG2D, dose-response, one site total binding fit.

B1: sdAb ET2F9 (VHH)
VHH: QVQLVQSGGGLVQPGGSLRLSCAASGFTFDDYAMSWVRQAPGKGLEWVSAISWSGRTTYYAESMKGRFTTSRDNAKNTLYLQMNSLKPEDTALYYCARGDVAIRGNLDAWGQGTQVTVSS
notes: It carries a 6His tag (detected with anti-6His / anti-his antibodies); also called ET2F09; sdAb F9
In assay [1], B1 gave an equilibrium dissociation constant (Kd) of 625 nM. Besides, the EC50 in assay [2] is 44 nM.
